# Experimental data as given in patent publication US7026443.
# B1: HPV18 E1 322-330 peptide … (peptide)
# peptide: SVAALYWYR
# modifications: not checked
# B2: HPV18 E6 peptide … (position 96, 9 amino acids) (peptide)
# peptide: TGLYNLLIR
# modifications: not checked
# B3: HPV18 E1 peptide … (position 284, 9 amino acids) (peptide)
# peptide: ALLRYKCGK
# modifications: not checked
# B4: HPV16 E6 position 23 peptide … (peptide)
# peptide: CTELQTTIH
# modifications: not checked
# B5: HPV18 E1 peptide … (position 412, 9 amino acids) (peptide)
# peptide: CATMCKHYR
# modifications: not checked
# B6: HPV33 E1 379 peptide … (SEQ ID NO: 36047) (peptide)
# peptide: NSNAAAFLK
# modifications: not checked
# B7: … (HPV16 E6, position 106) (peptide)
# peptide: LLIRCINCQK
# modifications: not checked
# B8: … (HPV16 E6, position 33) (peptide)
# peptide: IILECVYCK
# modifications: not checked
# B9: HPV18 E6 peptide … (position 44, 10 amino acids) (peptide)
# peptide: VFEFAFKDLF
# modifications: not checked
# B10: HPV16 E1 315 … (peptide)
# peptide: TAAALYWYK
# modifications: not checked
# B11: … (HPV18 E1, position 229, 9 amino acids) (peptide)
# peptide: LVRNFKSDK
# modifications: not checked
# B12: HPV18 E1 426-434 peptide … (peptide)
# peptide: QMNMSQWIR
# modifications: not checked
# B13: HPV18 E1 223 … (peptide)
# peptide: GLSFTDLVR
# modifications: not checked
# B14: HPV16 E6 position 92 peptide … (peptide)
# peptide: GTTLEQQYNK
# modifications: not checked
# B15: HPV33 E1 385 peptide … (SEQ ID NO: 35888) (peptide)
# peptide: FLKSNSQAK
# modifications: not checked
# B16: … (HPV18 E1, position 312, 9 amino acids) (peptide)
# peptide: MLIQPPKLR
# modifications: not checked
# B17: HPV45 E1 270 … (SEQ ID NO: 37205) (peptide)
# peptide: ALLRYKCGK
# modifications: not checked
# B18: HPV18 E6 peptide … (position 126, 10 amino acids) (peptide)
# peptide: RFHNIAGHYR
# modifications: not checked
# B19: … (HPV16 E6, position 31) (peptide)
# peptide: HDIILECVY
# modifications: not checked
# B20: HPV18 E1 460 … (peptide)
# peptide: FITFLGALK
# modifications: not checked
# B21: … (HPV16 E6, position 107) (peptide)
# peptide: LIRCINCQK
# modifications: not checked
# B22: HPV18 E6 peptide … (position 126, 9 amino acids) (peptide)
# peptide: RFHNIAGHY
# modifications: not checked
# B23: HPV45 E1 215-223 peptide … (SEQ ID NO: 37448) (peptide)
# peptide: LVRNFKSDK
# modifications: not checked
# B24: HPV16 E1 421 … (peptide)
# peptide: SMSQWIKYR
# modifications: not checked
# B25: HPV16 E6 position 32 peptide … (peptide)
# peptide: DIILECVYCK
# modifications: not checked
# B26: … (HPV16 E6, position 79) (peptide)
# peptide: KISEYRHYCY
# modifications: not checked
# B27: … (HPV16 E6, position 75) (peptide)
# peptide: KFYSKISEYR
# modifications: not checked
# B28: HPV45 E1 308 peptide … (SEQ ID NO: 37559) (peptide)
# peptide: SVAALYWYR
# modifications: not checked
# B29: HPV31 E1 peptide … (position 285, 9 amino acids) (peptide)
# peptide: MLIQPPKLR
# modifications: not checked
# B30: HPV18 E1 198 … (peptide)
# peptide: IAQLKDLLK
# modifications: not checked
# B31: … (HPV18 E1, position 393, 9 amino acids) (peptide)
# peptide: NSNAAAFLK
# modifications: not checked
# B32: HPV31 E1 372 … (A03 motif peptide) (peptide)
# peptide: FLKSNSQAK
# modifications: not checked
# B33: HPV45 E1 peptide … (position 209, 9 amino acids) (peptide)
# peptide: GLSFTDLVR
# modifications: not checked
# B34: HPV45 E1 peptide … (position 379, 9 amino acids) (peptide)
# peptide: NSNAAAFLK
# modifications: not checked
# B35: … (HPV16 E6, position 93) (peptide)
# peptide: TTLEQQYNK
# modifications: not checked
# B36: HPV18 E6 peptide … (position 54, 9 amino acids) (peptide)
# peptide: VVYRDSIPH
# modifications: not checked
# B37: HPV16 E6 position 37 peptide … (peptide)
# peptide: CVYCKQQLLR
# modifications: not checked
# B38: HPV16 E1 peptide … (position 404, 10 amino acids) (peptide)
# peptide: DCATMCRHYK
# modifications: not checked
# B39: … (HPV18 E1, position 428, 9 amino acids) (peptide)
# peptide: NMSQWIRFR
# modifications: not checked
# B40: … (HPV16 E6, position 75) (peptide)
# peptide: KFYSKISEY
# modifications: not checked
# B41: HPV16 E1 405 … (peptide)
# peptide: CATMCRHYK
# modifications: not checked
# B42: … (HPV16 E6, position 92, 10 amino acids) (peptide)
# peptide: GTTLEQQYNK
# modifications: not checked
# B43: … (HPV16 E6, position 33, 9 amino acids) (peptide)
# peptide: IILECVYCK
# modifications: not checked
# B44: HPV33 E1 379 peptide … (A11 motif peptide, 9 amino acids) (peptide)
# peptide: NSNAAAFLK
# modifications: not checked
# B45: … (HPV16 E6, position 31, 9 amino acids) (peptide)
# peptide: HDIILECVY
# modifications: not checked
# B46: HPV16 E1 69 … (peptide)
# peptide: ALFTAQEAK
# modifications: not checked
# B47: … (HPV16 E1, position 315, 9 amino acids) (peptide)
# peptide: TAAALYWYK
# modifications: not checked
# B48: HPV16 E1 406 … (peptide)
# peptide: ATMCRHYKR
# modifications: not checked
# B49: HPV16 E1 386 … (peptide)
# peptide: NSNASAFLK
# modifications: not checked
# B50: HPV45 E1 209 … (SEQ ID NO: 43622) (peptide)
# peptide: GLSFTDLVR
# modifications: not checked
# B51: HPV31 E1 285 … (SEQ ID NO: 41814) (peptide)
# peptide: MLIQPPKLR
# modifications: not checked
# B52: … (HPV16 E1, position 419, 9 amino acids) (peptide)
# peptide: QMSMSQWIK
# modifications: not checked
# B53: … (HPV16 E6, position 37, 10 amino acids) (peptide)
# peptide: CVYCKQQLLR
# modifications: not checked
# B54: … (HPV16 E6, position 23, 9 amino acids) (peptide)
# peptide: CTELQTTIH
# modifications: not checked
# B55: … (HPV16 E6, position 32, 10 amino acids) (peptide)
# peptide: DIILECVYCK
# modifications: not checked
# B56: EVYDFAFR (HPV16 E6, position 48, 8 amino acids) (peptide)
# peptide: EVYDFAFR
# modifications: not checked
# B57: HPV16 E1 404 … (peptide)
# peptide: DCATMCRHY
# modifications: not checked
# B58: HPV45 E1 215 peptide … (SEQ ID NO: 43696) (peptide)
# peptide: LVRNFKSDK
# modifications: not checked
# B59: HPV16 E1 453 … (peptide)
# peptide: FMSFLTALK
# modifications: not checked
# B60: … (HPV16 E1, position 421, 9 amino acids) (peptide)
# peptide: SMSQWIKYR
# modifications: not checked
# B61: … (HPV16 E6, position 75, 9 amino acids) (peptide)
# peptide: KFYSKISEY
# modifications: not checked
# B62: HPV45 E1 308 peptide … (SEQ ID NO: 43764) (peptide)
# peptide: SVAALYWYR
# modifications: not checked
# B63: HPV45 E1 379 peptide … (SEQ ID NO: 43719) (peptide)
# peptide: NSNAAAFLK
# modifications: not checked
# Biological target: HLA-A*0301 (human)
# Conditions: not given
Binder,binding affinity ratio relative to standard peptide (IC50 standard / IC50 test),relative binding ratio (IC50 of standard peptide / IC50 of test peptide),binding affinity ratio (IC50 of standard peptide / IC50 of test peptide),binding affinity ratio (IC50 of the standard peptide / IC50 of the test peptide),relative binding ratio (IC50 of standard peptide / IC50 of test peptide) (ratio to standard peptide),relative binding ratio (IC50 of the standard peptide / IC50 of the test peptide)
B1,2.9,–,–,–,–,–
B2,–,0.0005,–,–,–,–
B3,–,–,0.09,–,–,–
B4,–,–,–,0.0002,–,–
B5,–,–,0.0012,–,–,–
B6,–,0.0057,–,–,–,–
B7,–,–,–,–,0.021,–
B8,–,–,–,–,0.0016,–
B9,–,0.0001,–,–,–,–
B10,–,–,0.78,–,–,–
B11,–,–,0.0005,–,–,–
B12,0.0011,–,–,–,–,–
B13,–,–,0.0009,–,–,–
B14,–,–,–,0.0002,–,–
B15,–,0.0013,–,–,–,–
B16,–,–,0.0005,–,–,–
B17,–,0.09,–,–,–,–
B18,–,0.0023,–,–,–,–
B19,–,–,–,–,0.0002,–
B20,–,–,0.032,–,–,–

Binder,binding affinity ratio relative to standard peptide (IC50 standard / IC50 test),relative binding ratio (IC50 of standard peptide / IC50 of test peptide),binding affinity ratio (IC50 of standard peptide / IC50 of test peptide),binding affinity ratio (IC50 of the standard peptide / IC50 of the test peptide),relative binding ratio (IC50 of standard peptide / IC50 of test peptide) (ratio to standard peptide),relative binding ratio (IC50 of the standard peptide / IC50 of the test peptide)
B21,–,–,–,–,0.0025,–
B22,–,0.0005,–,–,–,–
B23,–,–,–,–,–,0.0005
B24,–,–,0.69,–,–,–
B25,–,–,–,0.0065,–,–
B26,–,–,–,–,0.0043,–
B27,–,–,–,–,0.0067,–
B28,–,2.9,–,–,–,–
B29,–,–,–,–,0.0005,–
B30,–,–,0.0003,–,–,–
B31,–,–,0.0057,–,–,–
B32,–,–,–,–,0.0013,–
B33,–,0.0009,–,–,–,–
B34,–,0.0057,–,–,–,–
B35,–,–,–,–,0.01,–
B36,–,0.12,–,–,–,–
B37,–,–,–,0.0001,–,–
B38,–,–,–,–,0.0044,–
B39,–,–,0.054,–,–,–

# Same assay, conditions: remark: other sources report otherwise
row,Binder,relative binding ratio (IC50 of standard peptide / IC50 of test peptide) (ratio to standard peptide)
1,B40,0.0015

# Biological target: HLA-A*1101 (human)
# Conditions: not given
Binder,relative binding ratio (IC50 of standard peptide / IC50 of test peptide),binding affinity ratio (IC50 of standard peptide / IC50 of test peptide) (ratio to standard peptide),binding affinity ratio (IC50 of the standard peptide / IC50 of the test peptide)
B41,0.0098,–,–
B42,–,0.07,–
B43,–,0.019,–
B44,0.37,–,–
B45,–,0.0001,–
B46,0.4,–,–
B47,–,–,20
B48,1.5,–,–
B49,–,0.011,–
B50,0.0025,–,–
B51,0.0014,–,–
B52,–,–,0.026
B53,–,0.0005,–
B54,–,0.0001,–
B55,–,0.021,–
B56,–,0.0025,–
B57,0.0001,–,–
B58,0.0002,–,–
B59,0.21,–,–
B60,–,–,0.028

# Same assay, conditions: remark: other sources report otherwise
row,Binder,binding affinity ratio (IC50 of standard peptide / IC50 of test peptide) (ratio to standard peptide)
1,B61,0.0002

# Same assay, conditions: scale: ratio
row,Binder,binding affinity ratio relative to standard peptide (A*1101)
1,B62,8.8
2,B63,0.37
